Test: soluble fraction after stress (log2 fold change); higher = more stays soluble; pooled small domains, quantitative proteomics
Conditions: stress: pH 4
Summary of the method: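 Values are on a log2 scale, where higher means more of the domain stayed soluble after pH 4 stress. They are fold changes in the soluble amount of each domain from pooled custom libraries, measured by high-throughput quantitative proteomics. The fold change is taken to reflect aggregation propensity.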

| Sequence | soluble fraction (log2) |
| --- | --- |
| HMSDLLYAHPTEKGFQLVNVTQKVVMVILKTAAPNVYTVKGKNAIVFKEGNSWFYSENHNKKLLNIK | -0.1 |
| HMEMTEDEITKQFDAMEREAKKEIDTGADKRAFMYGVSRTAAGMAGKNPKYARFITDKAKEVIENIAKYK | 0.207 |
| HMLGITEGSLVRVIRSPNFGKIGTVAELPAELRMMESETMVRIAIVEIEGTNFEIPRSNLEVLET | -1.28 |
| HMEVPVQYIKFKIPENHFWAKKKVADIILPPETLLVLLQRGSDKMIPDGETVLLPEDTLVLIAKAPG | -0.783 |
| HMDILPEGNYKVNYDVIDEVGNIVANKNDIVVTEKSIKPLNTILGIDLYEVIHSQTGKYFTINGDNLTN | -0.328 |
| HMLSLKAQVYEIIRQKILQQEYALGEKINIDTVADELKISNSPIREALMMLSQDGLIEMVPNNGARVI | -1.27 |
| HMPSLAVYPNPVKDILNIATDKPVHSIRIYNVYGSEVLRAADTNRIDVSHLPAGVYMVSADGKVTRIIK | 0.0765 |
| HMSQIILSARSGHAALRHRLGELGYTFADKEFDDIYERFLEVADQKKEVYDEDLESIVQERQRD | -0.559 |
| HMGAKLTTAQGGTLKVLVKGKKTHTPTIELRDKDPDFPNAKVVQPDINKGNKQIAHGINGVL | 0.144 |
| HMRKEDYLPIGSVINMDDRKFRVDSVDFDKDKVSLQDMALADARMPIFWEEPLTVVRELYEQQDE | -0.899 |
| HMEGMSIYVTVNGDMVHLTGKMSYVFVDVFEHIDFDLSKPQGSGIVTKLNGRDAQYMEEIRSGDMIEIYWR | -0.669 |
| HMAVSNWQKLVSSIQTQLKILALYHGPEDGIYGPNTRSAIMLYEENIGLPVTGEPSRELLAHMLDQTD | -0.194 |
| HMTAMQYVTIKDIADALGISKSSVSRALAGDVHNVSAQTIERVRAKALEMGYLRNNAAVNLR | 0.22 |
| HMSKPIREVAYETLKNAIVTGEIPAGSRIVETEYAERMHISRTPLREALRKLERDGLVEYVVRRGVVVRAF | -0.303 |
| HMRTMRHLSVPRQETQQILSQLKAEFALPQGARVQPDPSDSKRTLIPVKEGAESELLSRYPVVHAEP | 0.11 |
| HMEPREALDGLISERGETYASISRLLGRNSAYIQQFIKRGSPARLDQSDIALLALHFDVPVEMLGGKE | 0.054 |
| HMVAREAYTTQNLTDVFSISRQAVEKRAKREGWQSVPRKGRGGGKLWVVSSMPAETRDLLASLLLRK | ≥ 0.43 |
| HMSEPQYKVLFSNLDDRDGGAIVTALGAMNVPYKYNDTGTALLVPADRVYDARLQLASQGLPRG | 0.172 |
| HMAATNVKVPDLKGWDYNNAVGKYGDKLSFVKKSIYSDSVSKGIIIYNARVGETVAQGTTIEVTVSLGPKG | 0.0127 |
| HMLKEDSAYELGLRIFDQALNDYGTSFIDLKEDEYKKVLSIYGYSNPRQLIINIGLGNVIPHLLARDITE | -1.17 |
| HMGTWKKIGTMTATVNDLYVRETPNGYIMGFINKGTVVEVDGKTTGKWTHAKVEGIGVGWIWTGYLDK | 0.161 |
| HMPGEATVPSVIGMTKAEAKAKLQASGFELGYSEFVASDKPKGEIVEQDPGAGETAKGGTEVNVKISDGS | -0.187 |
| HMSVSTGTITGSVVNLREEPNTSSKVLDKLPKDTVVYVLSASGEWYNVSYGDKTGWVYGEYLA | -0.478 |
| HMDDGLTRLTPRENEVLELMAQGRSNTAIAERLVLSYGAVEKNVSSIFTKLDLPLDAGDHRRVLAVLRRLN | -0.677 |
| HMDMSDFEVVRDMYLTGKVWNAGDIVEAKGITGEVVRKGTNYLSFVDKNGKVHKAWLHEIEL | -0.968 |

| Sequence | soluble fraction (log2) |
| --- | --- |
| HMGGHLAYGFSRRFGLLIDEQQGEPVIIARPDYSPVHYAEARRIVGQPAALRVVDEQAFNQLLQSQQESGA | -0.383 |
| HMELEFLTEKQKEALILAVNRGYYDVDSEVTLKRLADELGIARSTYGEHLKRAESEALKMVVSDLLRD | -1.03 |
| HMGKIILLFSDDDGVFDTALYRVRNYDGHRFAQSLGNAEMKWRHSEDEYFDFVLTSLREDGYDIEEIE | -0.686 |
| HMLPYKGTVAVSLAVLHKAVGVGTADMLKAVGTLRQGTEVTVTGRNGPFAQLKNGLWMKESFLE | 0.193 |
| HMAVTNLTAKQISDTRWRVTWDSTLASPTYYVYRDGLLMMQTRQELYEFDAARGEQVQIDVLDDMAAAPAE | -0.459 |
| HMIVVMKTSASERDLQEVIARIEQFGFATRSIVGSERATVSVLGAPLPDSLQEALERMPGVEEVVRITK | -0.0559 |
| HMLAGKTYEVQTESGGKWTLVASYNVKSQAIQQAQALLESHKYSGVKVIAESDRKGEEVIFNEQSEVT | 0.104 |
| HMLPQYELIKQYLRHQIETGEWPIGYRTPSEPKLAEQFSVSRMTARRALQELADQGLLSRTAGSGTFVAKP | 0.0856 |
| HMNLSAREWTSADGSRTFQGELTGFQDGKVKVRRSDGKSLVFAIELLSESDQQFIKTNQLVIAKKDED | -0.752 |
| HMNTPNYDVLYRGLADADAGQIMEALQKSNIPFKVDSHSGVLLVPADQVHEARLKLASQGLPRG | 0.00323 |
| HMKHTQTDEGELLSTLRTLFPNSSSSSLRKMLTQGRILVNQEVVHRAKHALQAGDEIEVLARQ | 0.0825 |
| HMNILKAPMPGLILDVIVKESDLVKKGDPVIILEAMKMENILSSPVDGIVKEIKVNPQQTVEKNNTLIKFE | -0.469 |
| HMSVPQENKDLLGRSIEIFYAGKTVEAKVTDTGALAPLGRALDLSPATWRAFGASSISDWGVRGVFYRFVA | -0.0838 |
| HMGTEITEQRAKEIALENAKVAESDVTAMRVKKEMDDGVWRYDVEFYVQNKEYDYEINAMDGTILSVDYD | 0.0797 |
| HMEALTPREREVLTLMGQGRSNAEIATLLSIAPRTAKVHVQNILSKLGATNRTEAVSLAVRQGLIS | -0.18 |
| HMRIFDDNMIFPTEAEISAALKRLVMDLPKVGFLQGHGERAVDNVGERAYSMFTHANNFRYALINQGFVT | -0.0562 |
| HMTTTYTVPKVTGMTLEEAREDPDVVGRFTIVEGEKVTSDTVPVGQIVSQEPAAHRQVGEDGLTITVNIS | -0.2 |
| HMPVSTLLGDNLRRLRTAKGYTQEAVADAARISVAAYRNYETGRAIPKVNTLLAIARALGVSLNDLVTE | -0.00358 |
| HMNGLPDLSRYTGVSIVDGLASVGSDSSFAYRAKIAETLGISDYKGSAGQNLEMIRKLGGKV | -0.172 |
| HMPKDLEKRAAILAAAKHLFPVHGFEGTSMDAIAALANVSKLTVYSHFKDKESLFTEAIREK | 0.163 |
| HMKEIKRLVELSPGRYFIEGATNIRVFGINGSLLLDTKGETVDLSDLAKGVYLLKTDGVTYKVL | -0.216 |
| HMTANDKRNALYRKIEVGRRQLPAMDEVAFRQLLAAEFGVESRKDMSVGQLSRLVNILAEKGAVF | 0.0414 |
| HMIERLVVSPAAGVFTKKMSVENNTRIDVGHVLGHVGETEVRSPFAGILQNYIAVDGERLTAHQPIAWLRS | 0.15 |
| HMTTTPTSQMVTELRSRGWTLRALAQRLGVGHASINRWANGVTPDRDLVAALRALVASGEVP | -0.00752 |
| HMLIDQYPYSIIYRLIPHGRSNAVPAAQIVGLTKLDERSIRIYVEAMRREGHIIASSSKGYYFPASIEE | -0.589 |

| Sequence | soluble fraction (log2) |
| --- | --- |
| HMGISEKVINIIETYTMIARKKYPSVKSLAEHFNVSERTVHRYLEIIKMIDVVDYDREKKGYFFPYGDR | -0.462 |
| HMGVVEEVAADFEGRAVVGKVDVDEQTELARRFGIMSIPTLVVMKGGKVVEQAVGARGKADIAAMLERH | -0.673 |
| HMSAMKYTSEVFQRLSRGQFISSNSIDAETRAIYSDIEENQQEYEDYFSKIDFLLSSGDGFYYFSRK | -1.22 |
| HMESRLQAAIALRKAGEHEQSREALKILADEPALRAQALLNIAWSFDNQGHERDAEGYYLAAIE | 0.127 |
| HMDSTLTNEIYNELYRAITHQELKPGQNLTLTMLKKQFNVSHTPIREALTRLSADGLVTYHPNKGMKVT | 0.222 |
| HMGIAFDYDAGRFDQVPPNLVEKWQQAYPAVDVLSELRRMEAWASANPVNRKSNWQRFIVNWLTRAQDRAG | -0.16 |
| HMGGAVQIAEQIAARIKDGALRPGELLPPVRQLAAELEVNPNTVASAYARLRDAGLVATRGRAGTVVLEPP | -0.246 |
| HMGERVDGVVKFFNGQKGFGFIQREDGGPDAFVHISAVERAGMAGLDEGQRVSFELELDRRGKQAAINLTP | -0.192 |
| HMGVEVEVPNVKGKLVADAEYELGLAQLTPVRTDSAYNRNLPPGTVLEQLPASGSHVKEGREIYLTINST | 0.155 |
| HMDNVLGKSGKVIFVNEEINSYGRAFIPGHGEWNIRTKSDQNIHINDGIKVIERDGITLVVEL | -1.3 |
| HMDAIIVPSVLKMKPFEAEEKLSALGLRMKINDTVYIDNMKPGVIVEQSPTAEEDVKTDRVIYVIVNA | -0.139 |
| HMDTVIAEVTASILNLRRSAGTSSDIIGKLNKGEKVSIIGGSGNWKNVRTSGGITGWVYHEYLSTY | -0.183 |
| HMTFGEMLQYTNRLKEILESNAPQSIKDRRLANLMTDLEQAYGIPILRDQEFEKENPFLMQLYRTIS | -1.36 |
| HMGEVQALIPGLVSKLFVVEGESVKIGQKLIILEAMKMENEIASPINGTIKKIYIKSGDKIDKGSIIMEIT | -0.0106 |
| HMPEPMKLSDLPPELWQRVSDLFDEVIDLPETDRIPYIRNLWGSEPLVAKELMALLVAAANVD | -1.1 |
| HMPKETFLNLDEEKRQAIINVLLKNFSEQHISQVKVSAIVSGIGMSRGAFYKYFEDLEDAYRFTISYFSA | -0.0967 |
| HMTIERVKIKETPTGWLRVRETPDNNGSEIGRANVGEIYELLGSKGEWYHIVYKGKQGFISTKYAEKVL | -0.124 |
| HMLKDKLSDKDFDFYKNKIQIQLQGNPTELKELVRRFSSTEEQQILKTIDYMLDNGFLRIDEDNMIYWK | -1.8 |
| HMNTDVEKQKVFTALFDDYFRRNSMTSLEKQLFLTALKTNFQNAQKTVAKDHPYYATYSLIISAIENYR | -0.936 |
| HMTNIELYQRLLNLGFTPAQAKILLVQYDETRLTDNLNYVDFKKQQGNIENLPAYTTTIIKKDVRL | 0.0954 |
| HMKFPIITAKQDSDGKFYWAQTTDKGKTYTFILDGDGKKFPIGGTMPDVKINENGYWSVNGSSTGVLANDL | -0.295 |
| HMTEKSTRSVPQEHEGKRLDVAAALLFPVYSRSELARRIDAGYLLLNGKGSTPKTKVHELDLIELLEV | -1.65 |
| HMDDPEISQEQRQQLFRTAKEHFGASGNDVLKEILADHGRDSTVKMPVSVFAEIMGDLLKRALD | -0.121 |
| HMYLEARVKSTTPILSKPNELGKSLGKLYTNDFVALVSLHKNGLDSYYRTANGGYINAADVVIDRDV | -0.133 |
| HMETNFTGTRIATARKAKNMSQAQLAQQLFISPQAVGKWERGESIPDIVTVVKLADVLGVDLNYFSE | -0.403 |

Source: the domain aggregation screens of Martell et al. (2025)
